The results in this text go back to patent US20130052638, “Methods for detecting DNA-binding proteins” (Agency for Science, Technology and Research, published 2013).

In data set [1] the target is T1, Estrogen receptor beta (ERβ) (UniProt Q92731 Q92731:1-530). Nature of the data set: competition; free competitor at 4:1 over ERβ, 360 nM ERβ, 56 mM KCl, 5 min; strong competitor. The conditions noted are these: chain copies: 2. As for the experimental part:
(§1) In this study, excess unmodified DNA competitor (i.e., wtERE and scrDNA, are used as strong and weak competitors, respectively) was pre-incubated with the ERβ at room temperature for 20 minutes to allow for complex formation (molar ratio of ERβ:dsDNA is 1:4), followed by the addition to the complementary mixture of v1-v2-AuNPs in 56 mM KCl, with final ERβ concentration of 360 nM. In the presence of strong competitor (wtERE), limited amount of ERβ bound to the ERE anchored on the AuNPs surface, leading to extensive particle aggregation in salt solution. […]
(§2) The aggregation state of the AuNPs was quantified using UV-Vis absorption spectrum as indicated by the shift of LSPR peak at 526 nm wavelength to a longer wavelength (e.g. 650 nm). The UV-Vis absorbance ratio at 650 nm to that at 526 nm, i.e., A650/A526 is indicative of the particle aggregation degree where a higher ratio is directly related to a larger extent of aggregation. In this study, the deviation percentage (i.e., [(X−Y)/Y]*100%) was calculated based on the difference in aggregation ratio of AuNP samples (measure as A650/A526) with competitors (denoted as X) relative to that without competitor (denoted as Y) at 5 minutes after mixing in the 56 mM KCl-containing protein binding buffer. A 9.0% of deviation was recorded for the scrambled DNA sequence (scrDNA). […]

The target in data set [2] is T1, Estrogen receptor beta (ERβ). Nature of the data set: competition; free competitor at 4:1 over ERβ, 360 nM ERβ, 56 mM KCl, 5 min; attributed to non-specific binding. As to conditions: chain copies: 2. As for the experimental part:
as §1, §2

T1 sequence (Q92731 whole entry, one chain of several): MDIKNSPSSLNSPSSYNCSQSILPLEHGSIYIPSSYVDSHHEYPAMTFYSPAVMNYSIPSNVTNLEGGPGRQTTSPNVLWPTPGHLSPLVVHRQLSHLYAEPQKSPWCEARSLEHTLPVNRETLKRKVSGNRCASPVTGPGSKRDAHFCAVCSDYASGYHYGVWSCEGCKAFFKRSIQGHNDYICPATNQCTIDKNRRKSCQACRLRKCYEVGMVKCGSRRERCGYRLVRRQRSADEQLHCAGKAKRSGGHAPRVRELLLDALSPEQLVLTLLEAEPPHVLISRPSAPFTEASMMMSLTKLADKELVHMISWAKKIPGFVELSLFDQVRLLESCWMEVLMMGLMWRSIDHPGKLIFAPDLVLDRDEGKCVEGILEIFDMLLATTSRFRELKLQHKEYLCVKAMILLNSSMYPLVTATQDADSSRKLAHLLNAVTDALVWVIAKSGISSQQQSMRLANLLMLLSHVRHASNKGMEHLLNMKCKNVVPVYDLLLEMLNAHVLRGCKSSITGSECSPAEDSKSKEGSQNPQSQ

B1: wtERE competitor (free) (dsDNA)
DNA 1: GTCCAAAGTCAGGTCACAGTGACCTGATCAAAGT
DNA 2: ACTTTGATCAGGTCACTGTGACCTGACTTTGGAC
Take B1: the binding signal in data set [1] is 35 % deviation of aggregation ratio.

B2: scrDNA competitor (free) (dsDNA)
DNA 1: GTCCAAAGTCAATCGCCAGCACGATGATCAAAGT
DNA 2: ACTTTGATCATCGTGCTGGCGATTGACTTTGGAC
With B2, the binding signal in data set [2] is 9 % deviation of aggregation ratio.
